Measured values as given in patent USRE50268.

Target: BG505 SOSIP.664 gp140 trimer (HIV-1 isolate BG505)
Assay: single-particle negative-stain electron microscopy

B1: PGDM1400 Fab (Fab, V domains shown)
VH: QVHLTQSGPEVRKPGTSVKVSCKAPGNTLKTYDLHWVRSVPGQGLQWMGWISHEGDKKVIVERFKAKVTIDWDRSTNTAYLQLSGLTSGDTAVYYCAKGSKHRLRDYALYDDDGALNWAVDVDYLSNLEFWGQGTAVTVSS
VL: DFVLTQSPHSLSVTPGESASISCKSSHSLIHGDRNNYLAWYVQKPGRSPQLLIYLASSRASGVPDRFSGSGSDKDFTLKISRVETEDVGTYYCMQGRESPWTFGQGTKVDIK
modifications: sulfated tyrosine at position 100F (Tys100F), seen in the electron density map of the Fab crystal structure
- stoichiometry (Fab per trimer): 1
